The supplement of paper PMC10201428
± gives the standard deviation of the averaged measurements.

Experiments:
[1] = system: VchCAST RNA-guided transposition machinery (E. coli BL21(DE3) host, lacZ target); assay: relative integration efficiency (T-RL orientation) vs wild-type transposon end (log2 (normalized fold change)); transposon end mutated: right end (5 bp flank + 75 bp right end); higher = more efficient transposition
How it was run: (§1)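 A T7-driven effector plasmid encoding a CRISPR array, tniQ-cas8-cas7-cas6 and tnsA-tnsB-tnsC was co-transformed into E. coli BL21(DE3) together with a pUC57 mini-transposon donor holding barcoded pools of 1549 left-end or 1849 right-end variants. Transformants were plated with 0.1 mM IPTG at 37°C for 18 h. Illumina sequencing of PCR-amplified input plasmids and genomic integration junctions gave barcode abundances, and relative integration efficiency is their output/input fold change, normalised to reference barcodes and log-transformed.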

[2] = system: VchCAST RNA-guided transposition machinery (E. coli BL21(DE3) host, lacZ target); assay: relative integration efficiency (T-LR orientation) vs wild-type transposon end (log2 (normalized fold change)); transposon end mutated: right end (5 bp flank + 75 bp right end); higher = more efficient transposition
How it was run: as §1

Sequence	relative integration efficiency (log2) [1]	relative integration efficiency (log2) [2]
ACATTTGTTGATACAACCATAAAGTGATATTTACAACCATAAGTTGATATTTTTCACAACCATAAAGTGATATTTACTCTGATCATAGTCAGACCAACATTGCTACGACCCGTATTCGCACCGACAC	0.0395 ± 0.16	0.0534 ± 0.15
ACATTTGTTGATACAACCATAAAGTGATATTTACAACCATAAGTTGATATTTTTCACAACCATAAGTTGATATTTTCTCTGATCATAGTCAGACCAACATTGCTACGACCCGTATTCGCACCGACAC	0.36 ± 0.12	0.284 ± 0.16
ACATTTGTTGATACAACCATAAAGTGATATTTACAACCATAAGTTGATATTTTTCACAACCATATATTGATATCTCCTCTGATCATAGTCAGACCAACATTGCTACGACCCGTATTCGCACCGACAC	0.0944 ± 0.13	0.346 ± 0.17
ACATTTGTTGATACAACCATAAAGTGATATTTACAACCATAAGTTGATATTTTTCACACCCATAAATTGATAATTACTCTGATCATAGTCAGACCAACATTGCTACGACCCGTATTCGCACCGACAC	-0.192 ± 0.21	0.0675 ± 0.11
ACATTTGTTGATACAACCATAAAGTGATATTTACAACCATAAGTTGATATTTTTCACACCCATAAATTGATATTGCCTCTGATCATAGTCAGACCAACATTGCTACGACCCGTATTCGCACCGACAC	-0.0454 ± 0.018	0.319 ± 0.19
ACATTTGTTGATACAACCATAAAGTGATATTTACAACCATAAGTTGATATTTTTCAGTGGGTATTTAACTATAACGCTCTGATCATAGTCAGACCAACATTGCTACGACCCGTATTCGCACCGACAC	-0.682 ± 0.18	2.73 ± 0.16
ACATTTGTTGATACAACCATAAAGTGATATTTACAACCATATATTGATATCTCTCACAACCATAAAATGATAATTACTCTGATCATAGTCAGACCAACATTGCTACGACCCGTATTCGCACCGACAC	-0.337 ± 0.17	-0.162 ± 0.091
ACATTTGTTGATACAACCATAAAGTGATATTTACAACCATATATTGATATCTCTCACAACCATAAAGTGATATTTACTCTGATCATAGTCAGACCAACATTGCTACGACCCGTATTCGCACCGACAC	-0.357 ± 0.21	-0.115 ± 0.5
ACATTTGTTGATACAACCATAAAGTGATATTTACAACCATATATTGATATCTCTCACAACCATAAGTTGATATTTTCTCTGATCATAGTCAGACCAACATTGCTACGACCCGTATTCGCACCGACAC	-0.0164 ± 0.24	0.252 ± 0.15
ACATTTGTTGATACAACCATAAAGTGATATTTACAACCATATATTGATATCTCTCACAACCATATATTGATATCTCCTCTGATCATAGTCAGACCAACATTGCTACGACCCGTATTCGCACCGACAC	-0.415 ± 0.28	0.32 ± 0.11
ACATTTGTTGATACAACCATAAAGTGATATTTACAACCATATATTGATATCTCTCACACCCATAAATTGATAATTACTCTGATCATAGTCAGACCAACATTGCTACGACCCGTATTCGCACCGACAC	0.065 ± 0.054	0.444 ± 0.39
ACATTTGTTGATACAACCATAAAGTGATATTTACAACCATATATTGATATCTCTCACACCCATAAATTGATATTGCCTCTGATCATAGTCAGACCAACATTGCTACGACCCGTATTCGCACCGACAC	-0.378 ± 0.18	0.352 ± 0.16
ACATTTGTTGATACAACCATAAAGTGATATTTACAACCATATATTGATATCTCTCAGTGGGTATTTAACTATAACGCTCTGATCATAGTCAGACCAACATTGCTACGACCCGTATTCGCACCGACAC	-1.32 ± 0.41	2.6 ± 0.17
ACATTTGTTGATACAACCATAAAGTGATATTTACACCCATAAATTGATAATTATCACAACCATAAAATGATAATTACTCTGATCATAGTCAGACCAACATTGCTACGACCCGTATTCGCACCGACAC	0.256 ± 0.0071	-0.112 ± 0.54
ACATTTGTTGATACAACCATAAAGTGATATTTACACCCATAAATTGATAATTATCACAACCATAAAGTGATATTTACTCTGATCATAGTCAGACCAACATTGCTACGACCCGTATTCGCACCGACAC	-0.155 ± 0.041	-0.0182 ± 0.15
ACATTTGTTGATACAACCATAAAGTGATATTTACACCCATAAATTGATAATTATCACAACCATAAGTTGATATTTTCTCTGATCATAGTCAGACCAACATTGCTACGACCCGTATTCGCACCGACAC	-0.313 ± 0.23	-0.245 ± 0.3
ACATTTGTTGATACAACCATAAAGTGATATTTACACCCATAAATTGATAATTATCACAACCATATATTGATATCTCCTCTGATCATAGTCAGACCAACATTGCTACGACCCGTATTCGCACCGACAC	-0.382 ± 0.084	-0.0754 ± 0.42
